This is an account of results in article PMC12416549 (2024).

T1: TNFR1 (Homo sapiens, UniProt P19438)
T1 chain: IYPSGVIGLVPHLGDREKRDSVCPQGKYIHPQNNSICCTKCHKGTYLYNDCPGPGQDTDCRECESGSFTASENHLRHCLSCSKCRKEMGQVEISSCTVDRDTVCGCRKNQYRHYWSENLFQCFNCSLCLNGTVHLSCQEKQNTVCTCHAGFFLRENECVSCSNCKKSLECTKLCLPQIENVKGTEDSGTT

B1: F63T (designed binder)
chain: MTLQELLREEALRRAEAEAFRYALELLAEKFPEQKEYLLDLAEEIESQIRSLSGVDVEDVRKTLDKEWAWVKELLAEHPAELAEVEAARAARLAELRAEVEAKVAA
B2: D56H (designed binder)
chain: B1 chain with D56H, T63F
B3: E86Q (designed binder)
chain: B1 chain with T63F, E86Q
B4: E44H (designed binder)
chain: B1 chain with E44H, T63F
B5: A42C (designed binder)
chain: B1 chain with A42C, T63F
B6: A87T (designed binder)
chain: B1 chain with T63F, A87T
B7: L39A (designed binder)
chain: B1 chain with L39A, T63F
B8: E25I (designed binder)
chain: B1 chain with E25I, T63F
B9: A15Y (designed binder)
chain: B1 chain with A15Y, T63F
B10: K62F (designed binder)
chain: B1 chain with K62F, T63F
B11: R8K (designed binder)
chain: B1 chain with R8K, T63F
B12: R97N (designed binder)
chain: B1 chain with T63F, R97N
B13: D59L (designed binder)
chain: B1 chain with D59L, T63F
B14: L96R (designed binder)
chain: B1 chain with T63F, L96R
B15: R89G (designed binder)
chain: B1 chain with T63F, R89G
B16: R50E (designed binder)
chain: B1 chain with R50E, T63F
B17: A80Q (designed binder)
chain: B1 chain with T63F, A80Q
B18: Q4N (designed binder)
chain: B1 chain with Q4N, T63F
B19: D59M (designed binder)
chain: B1 chain with D59M, T63F
B20: L75Y (designed binder)
chain: B1 chain with T63F, L75Y
B21: E95L (designed binder)
chain: B1 chain with T63F, E95L
B22: A90R (designed binder)
chain: B1 chain with T63F, A90R

Positions count from the first letter of the chain named. Names may count otherwise.

For this assay, the target named is T1, TNFR1. Kind of assay: yeast display SC50.
As to B1, the “apparent Kd (screen)” value is 0.869 nM.

As for B2, the “apparent Kd (screen)” value is 1.86 nM.

Regarding B3, the “apparent Kd (screen)” value worked out at 0.869 nM.

Turning to B4, the “apparent Kd (screen)” value is 2.05 nM.

With B5, the “apparent Kd (screen)” value was 1.05 nM.

B6: the “apparent Kd (screen)” value was 0.956 nM.

With B7, the “apparent Kd (screen)” value came out at 2.05 nM.

Consider B8, for which the “apparent Kd (screen)” value worked out at 0.869 nM.

In the case of B9, the “apparent Kd (screen)” value came out at 0.539 nM.

Take B10: the “apparent Kd (screen)” value was found to be 0.593 nM.

With B11, the “apparent Kd (screen)” value is 0.539 nM.

Take B12: the “apparent Kd (screen)” value is 0.539 nM.

Turning to B13, the “apparent Kd (screen)” value was found to be 0.718 nM.

In the case of B14, the “apparent Kd (screen)” value is 0.956 nM.

In the case of B15, the “apparent Kd (screen)” value stood at 1.05 nM.

B16: the “apparent Kd (screen)” value was 0.446 nM.

With B17, the “apparent Kd (screen)” value worked out at 0.49 nM.

Turning to B18, the “apparent Kd (screen)” value worked out at 0.405 nM.

On to B19, for which the “apparent Kd (screen)” value worked out at 0.539 nM.

With B20, the “apparent Kd (screen)” value stood at 0.718 nM.

For the molecule B21, the “apparent Kd (screen)” value was determined as 0.446 nM.

On to B22, for which the “apparent Kd (screen)” value turned out to be 0.718 nM.
